{"source": "paper PMC9531947", "about": "“Targeting A-kinase anchoring protein 12 phosphorylation in hepatic stellate cells regulates liver injury and fibrosis in mouse models” (eLife, 2022)", "target": "T1, AKAP12 with its five activation-responsive phospho-sites deleted by CRISPR-directed HDR, human HSCs (human (endogenous locus in primary …, UniProt Q02952-1 1-1782, deletion of the five phospho-sites T675, S676, S678, S687, S688 (PDEL; limits …)", "T1 construct": "human AKAP12 with the region of the phospho-sites T675, S676, S678, S687, S688 deleted; The transfected cells are a mixture of edited and unedited cells; the co-precipitate with the AKAP12 antibody holds both forms; also called CRISPR-edited AKAP12; PDEL (human); source: in cell extract and fixed cells", "T1 sequence (Q02952 other isoform, or with tags, fused parts or gaps with the stated changes)": "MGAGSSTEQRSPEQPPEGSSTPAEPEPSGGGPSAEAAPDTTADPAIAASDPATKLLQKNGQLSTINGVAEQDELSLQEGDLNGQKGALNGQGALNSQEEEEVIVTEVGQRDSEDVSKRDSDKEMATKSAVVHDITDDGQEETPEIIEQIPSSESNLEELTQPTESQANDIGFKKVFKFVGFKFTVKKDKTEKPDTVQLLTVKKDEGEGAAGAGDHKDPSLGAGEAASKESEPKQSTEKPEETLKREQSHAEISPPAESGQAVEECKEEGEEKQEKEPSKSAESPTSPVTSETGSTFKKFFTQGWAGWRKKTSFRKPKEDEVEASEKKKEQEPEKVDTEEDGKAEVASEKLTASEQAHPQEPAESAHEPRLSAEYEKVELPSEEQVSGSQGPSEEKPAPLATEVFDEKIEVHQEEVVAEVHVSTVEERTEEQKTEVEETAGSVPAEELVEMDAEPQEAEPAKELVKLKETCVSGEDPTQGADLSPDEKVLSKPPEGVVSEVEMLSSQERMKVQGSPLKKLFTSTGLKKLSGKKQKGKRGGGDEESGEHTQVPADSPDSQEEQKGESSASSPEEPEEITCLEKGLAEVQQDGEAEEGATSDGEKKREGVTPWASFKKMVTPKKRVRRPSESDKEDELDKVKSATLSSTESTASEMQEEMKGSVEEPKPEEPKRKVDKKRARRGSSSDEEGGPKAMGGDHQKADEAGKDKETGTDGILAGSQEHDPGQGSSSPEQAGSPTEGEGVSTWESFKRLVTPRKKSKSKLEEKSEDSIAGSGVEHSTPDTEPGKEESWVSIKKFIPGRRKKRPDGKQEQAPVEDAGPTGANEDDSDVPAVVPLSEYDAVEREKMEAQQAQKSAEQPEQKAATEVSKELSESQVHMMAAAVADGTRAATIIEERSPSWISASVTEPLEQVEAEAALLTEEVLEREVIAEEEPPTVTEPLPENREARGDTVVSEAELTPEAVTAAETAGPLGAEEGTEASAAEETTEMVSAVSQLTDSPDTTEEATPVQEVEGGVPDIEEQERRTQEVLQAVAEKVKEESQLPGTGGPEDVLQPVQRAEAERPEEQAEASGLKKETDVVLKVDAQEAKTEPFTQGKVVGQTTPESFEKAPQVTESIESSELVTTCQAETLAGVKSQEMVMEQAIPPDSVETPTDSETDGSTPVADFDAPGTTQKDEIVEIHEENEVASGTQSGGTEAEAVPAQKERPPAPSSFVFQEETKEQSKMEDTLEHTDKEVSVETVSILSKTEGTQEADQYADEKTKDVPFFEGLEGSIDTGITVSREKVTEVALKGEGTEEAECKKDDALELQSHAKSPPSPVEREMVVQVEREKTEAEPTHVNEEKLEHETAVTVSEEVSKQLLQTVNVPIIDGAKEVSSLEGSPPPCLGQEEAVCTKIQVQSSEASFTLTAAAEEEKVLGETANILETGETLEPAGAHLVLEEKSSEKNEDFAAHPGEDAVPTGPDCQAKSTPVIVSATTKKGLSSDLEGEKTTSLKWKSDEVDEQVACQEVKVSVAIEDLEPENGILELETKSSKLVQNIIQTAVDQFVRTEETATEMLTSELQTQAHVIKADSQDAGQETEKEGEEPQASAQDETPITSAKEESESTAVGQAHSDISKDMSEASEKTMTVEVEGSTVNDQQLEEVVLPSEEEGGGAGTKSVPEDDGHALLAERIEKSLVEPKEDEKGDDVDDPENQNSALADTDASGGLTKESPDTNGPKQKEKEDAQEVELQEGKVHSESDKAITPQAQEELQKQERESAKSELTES", "assay": "co-IP; extracts of primary human HSCs (cultured 0, 3 or 6 days; WT or CRISPR-edited HDR cells; negative control or Prkca siRNA A or B); AKAP12-HSP47 co-immunoprecipitation and western blot", "details": "partners not purified"}
{"binder": "heat-shock protein 47 (HSP47), human, endogenous (natural protein, UniProt P50454 19-418, looked up, heat-shock protein 47 (HSP47), ER-resident collagen chaperone, human, endogenous in primary HSCs and liver tissue; source: endogenous, primary human HSC extracts and fixed cells; human liver tissue array) AEVKKPAAAAAPGTAEKLSPKAATLAERSAGLAFSLYQAMAKDQAVENILVSPVVVASSLGLVSLGGKATTASQAKAVLSAEQLRDEEVHAGLGELLRSLSNSTARNVTWKLGSRLYGPSSVSFADDFVRSSKQHYNCEHSKINFRDKRSALQSINEWAAQTTDGKLPEVTKDVERTDGALLVNAMFFKPHWDEKFHHKMVDNRGFMVTRSYTVGVMMMHRTGLYNYYDDEKEKLQIVEMPLAHKLSSLIILMPHHVEPLERLEKLLTKEQLKIWMGKMQKKAVAISLPKGVVEVTHDLQKHLAGLGLTEAIDKNKADLSRMSGKKDLYLASVFHATAFELDTDGNPFDQDIYGREELRSPKLFYADHPFIFLVRDTQSGSLLFIGRLVRPKGDKMRDEL", "values": [{"measurement": "fold change of the AKAP12-HSP47 co-immunoprecipitate against WT cells", "value": 2.5, "unit": "fold"}]}
